According to paper doi:10.1101/2025.02.14.637896 (bioRxiv, 2025):

Target: the molecule itself
Assay: SEC

B1: GIRK2 R92F channel (G protein-gated inwardly rectifying potassium channel 2, R92F substitution) (natural protein, mouse, UniProt P48542 1-425, looked up)
chain: MTMAKLTESMTNVLEGDSMDQDVESPVAIHQPKLPKQARDDLPRHISRDRTKRKIQRYVRKDGKCNVHHGNVRETYRYLTDIFTTLVDLKWFFNLLIFVMVYTVTWLFFGMIWWLIAYIRGDMDHIEDPSWTPCVTNLNGFVSAFLFSIETETTIGYGYRVITDKCPEGIILLLIQSVLGSIVNAFMVGCMFVKISQPKKRAETLVFSTHAVISMRDGKLCLMFRVGDLRNSHIVEASIRAKLIKSKQTSEGEFIPLNQSDINVGYYTGDDRLFLVSPLIISHEINQQSPFWEISKAQLPKEELEIVVILEGIVEATGMTCQARSSYITSEILWGYRFTPVLTMEDGFYEVDYNSFHETYETSTPSLSAKELAELANRAEVPLSWSVSSKLNQHAELETEEEEKNPEELTERNGDVANLENESKV
B1 was tested, and the “stoichiometry N” value was 4.
